Measured values published in PMC8329713, “The identification and structural analysis of potential 14-3-3 interaction sites on the bone regulator protein Schnurri-3” (Acta Crystallographica. Section F, Structural Biology …, 2021).
Non-standard residues stand in square brackets, D forms with d. No end group written: not given here. *: point of attachment. FITC = O=C1OC2(c3ccc(O)cc3Oc3cc(O)ccc32)c2ccc(NC(=S)*)cc21; pS = N[C@@H](COP(=O)(O)O)C(=O)O; Ahx = NCCCCCC(=O)O

Columns and labels:
Assay in all cases: fluorescence polarisation; 14-3-3 isoforms (full length) serially diluted twofold in the presence of 10 nM FITC-labelled peptide; 50 mM Tris pH 7.5, 150 mM NaCl, 5 mM MgCl2, 0.05% Tween-20 (no reducing agent listed); one-site specific binding model
Conditions in all cases: both partners purified
14-3-3σ (full length) = target: T1, 14-3-3σ (full length) (human, UniProt P31947 1-248)
T1 construct: 14-3-3 protein sigma, human, full length; Expressed from a pPRoeX-Htb vector; also called 14-3-3 isoform σ; the σ isoform; source: E. coli NiCo21(DE3), purified (nickel column, TEV cleavage, second nickel column, SEC)
T1 sequence (looked up): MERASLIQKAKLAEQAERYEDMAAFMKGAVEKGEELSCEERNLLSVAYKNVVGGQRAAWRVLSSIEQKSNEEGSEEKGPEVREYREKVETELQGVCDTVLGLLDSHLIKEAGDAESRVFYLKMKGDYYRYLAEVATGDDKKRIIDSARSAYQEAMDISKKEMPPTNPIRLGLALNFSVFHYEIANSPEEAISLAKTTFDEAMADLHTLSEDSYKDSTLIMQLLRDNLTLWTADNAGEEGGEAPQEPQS

14-3-3γ (full length) = target: T2, 14-3-3γ (full length) (human, UniProt P61981 1-247)
T2 construct: 14-3-3 protein gamma, human, full length; Expressed from a pPRoeX-Htb vector; also called 14-3-3 isoform γ; source: E. coli NiCo21(DE3), purified (nickel column, TEV cleavage, second nickel column, SEC)
T2 sequence (looked up): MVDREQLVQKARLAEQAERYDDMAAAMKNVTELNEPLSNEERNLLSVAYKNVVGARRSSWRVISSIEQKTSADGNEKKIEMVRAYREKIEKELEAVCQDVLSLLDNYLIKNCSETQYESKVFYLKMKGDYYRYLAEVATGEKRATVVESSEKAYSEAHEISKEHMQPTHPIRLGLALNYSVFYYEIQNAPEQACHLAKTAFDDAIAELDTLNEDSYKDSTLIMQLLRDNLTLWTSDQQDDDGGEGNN

14-3-3η (full length) = target: T3, 14-3-3η (full length) (human, UniProt Q04917 1-246)
T3 construct: 14-3-3 protein eta, human, full length; Expressed from a pPRoeX-Htb vector; also called 14-3-3 isoform η; source: E. coli NiCo21(DE3), purified (nickel column, TEV cleavage, second nickel column, SEC)
T3 sequence (looked up): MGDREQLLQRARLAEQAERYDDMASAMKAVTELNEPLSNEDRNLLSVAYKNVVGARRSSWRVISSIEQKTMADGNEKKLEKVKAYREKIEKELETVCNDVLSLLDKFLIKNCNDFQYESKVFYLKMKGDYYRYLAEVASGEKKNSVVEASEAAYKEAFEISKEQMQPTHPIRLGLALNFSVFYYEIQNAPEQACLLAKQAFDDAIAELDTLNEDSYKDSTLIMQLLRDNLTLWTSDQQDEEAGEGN

14-3-3ζ (full length) = target: T4, 14-3-3ζ (full length) (human, UniProt P63104 1-245)
T4 construct: 14-3-3 protein zeta/delta, human, full length; Expressed from a pPRoeX-Htb vector; also called 14-3-3 isoform ζ; source: E. coli NiCo21(DE3), purified (nickel column, TEV cleavage, second nickel column, SEC)
T4 sequence (looked up): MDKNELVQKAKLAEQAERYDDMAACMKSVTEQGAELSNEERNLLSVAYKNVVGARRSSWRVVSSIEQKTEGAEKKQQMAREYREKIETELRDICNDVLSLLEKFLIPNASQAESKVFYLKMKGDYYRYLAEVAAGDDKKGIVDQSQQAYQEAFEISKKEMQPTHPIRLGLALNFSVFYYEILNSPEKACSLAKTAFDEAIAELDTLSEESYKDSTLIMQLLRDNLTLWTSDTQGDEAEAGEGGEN

14-3-3β (full length) = target: T5, 14-3-3β (full length) (human, UniProt P31946 1-246)
T5 construct: 14-3-3 protein beta/alpha, human, full length; Expressed from a pPRoeX-Htb vector; also called 14-3-3 isoform β; source: E. coli NiCo21(DE3), purified (nickel column, TEV cleavage, second nickel column, SEC)
T5 sequence (looked up): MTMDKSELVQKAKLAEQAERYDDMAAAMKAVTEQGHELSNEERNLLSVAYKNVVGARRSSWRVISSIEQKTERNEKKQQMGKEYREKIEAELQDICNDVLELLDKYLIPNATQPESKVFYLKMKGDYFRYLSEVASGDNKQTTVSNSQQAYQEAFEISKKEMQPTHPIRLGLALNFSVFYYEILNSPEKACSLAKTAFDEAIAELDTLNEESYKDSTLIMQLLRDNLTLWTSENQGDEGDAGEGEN

14-3-3τ (full length) = target: T6, 14-3-3τ (full length) (human, UniProt P27348 1-245)
T6 construct: 14-3-3 protein theta (tau), human, full length; Expressed from a pPRoeX-Htb vector; also called 14-3-3 isoform τ; source: E. coli NiCo21(DE3), purified (nickel column, TEV cleavage, second nickel column, SEC)
T6 sequence (looked up): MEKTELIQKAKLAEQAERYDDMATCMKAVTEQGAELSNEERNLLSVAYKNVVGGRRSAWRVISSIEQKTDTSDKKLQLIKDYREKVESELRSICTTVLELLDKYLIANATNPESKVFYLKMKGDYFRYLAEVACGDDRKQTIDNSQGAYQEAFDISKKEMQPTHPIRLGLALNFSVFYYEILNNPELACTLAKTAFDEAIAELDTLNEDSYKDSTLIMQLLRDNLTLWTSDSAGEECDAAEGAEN

B1: SHN3pS542 peptide, N-terminally FITC-Ahx-labelled (peptide)
peptide: {FITC-Ahx}-LLRSH[pS]MPSAAC
modifications: also: phosphoserine at 542, position not mapped
notes: Schnurri-3 (SHN3, transcription factor HIVEP3), human, 12-mer around phosphorylated Ser542; also called SHN3pS542-FITC; the FITC-labelled form; source: synthetic peptide, bought: GenScript (purity >95%)
Binder B1 has a Kd (14-3-3σ (full length)) of 26 ± 2 nM, a Kd (14-3-3γ (full length)) of 780 ± 50 nM and a Kd (14-3-3η (full length)) of 690 ± 60 nM. B1: binds (14-3-3ζ (full length)); binds (14-3-3β (full length)); binds (14-3-3τ (full length)).
